In data set [1] the target is Rhodiola rosea Rr4HPAAS, 4-hydroxyphenylacetaldehyde synthase, GenBank MF674522, SEQ ID NO: 2 (Rhodiola rosea, UniProt A0A2I6B3P0). The experiment in a line: Michaelis-Menten kinetics of Rr4HPAAS against aromatic amino acids. To be noted: compared with L-tyrosine and L-DOPA; pH 8.0, 30° C. How it is done: (§1) The AAS enzyme assays were performed in 100 μL of reaction buffer (50 mM Tris, pH 8.0) containing 50 μg of recombinant enzyme, 200 μM PLP. Kinetic reactions were incubated with a range of amino acid substrate concentrations (1 μM-4 mM) at 30° C. for 30 minutes prior to quenching with 100 μL of 0.8 M formic acid. […] Rr4HPAAS reactions were also analyzed by LC-MS-UV. 50 μL of reaction mixture was analyzed by an Ultimate 3000 liquid chromatography system (Dionex), equipped with a 150 mm C18 Column (Kinetex 2.6 μm silica core shell C18 100 Å pore, Phenomenex) and coupled to an UltiMate 3000 diode-array detector (DAD) in-line UV-Vis spectrophotometer (Dionex) and a TSQ Quantum Access MAX triple-quadrupole mass spectrometer (Thermo-Scientific). To resolve chromatographically L-tyrosine, tyrosol and 4-HPAAA, compounds were separated through the use of an isocratic mobile phase containing 50 mM monopotassium phosphate pH 4.6, 15% (v/v) acetonitrile and 0.5 mM octyl sulfate. Rr4HPAAS product formation was quantified using the UV absorbance at 280 nm and compared to analytical standards using the diode array detector wavelength at a wavelength range of 200-500 nm and chromatographic retention time. […]
(§2) Kinetic constants such as Km and Vmax were determined by fitting raw data to the Michaelis-Menten equation using the nonlinear regression function in Prism (version 7.0).

For the next data set, the system named is N. benthamiana leaves. The experiment in a line: Agrobacterium-mediated transient expression in leaves with LC-HRAM-MS metabolic profiling. The format is in vivo. Conditions: leaves harvested 5 days after infiltration. As for the experimental part: To further evaluate the biochemical function of R. rosea tyrosol glycoside biosynthetic genes in planta, these genes were expressed in N. benthamiana leaves using the Agrobacterium tumefaciens-mediated transient protein production technique (Sainsbury et al., 2009) followed by LC-HRAM-MS-based metabolic profiling. […] PsTyDC and the previously reported Petroselinum crispum 4HPAAS (Pc4HPAAS, GenBank: AAA33861) (Torrens-Spence et al., 2012) were also tested in parallel as controls. […] The chemical identity of these compounds was confirmed by both LC-HRAM-MS and nuclear magnetic resonance (NMR) analyses (FIGS. 20-26). […] Next, the in planta regio-specificity of RrT8GT and RrT4GT in tyrosol glycosylation was evaluated. […] Meanwhile, the accumulation of free tyrosol was reduced in these plants compared to those with Rr4HPAAS expression alone (FIG. 27). […]
Crown tissue and root tissue of a three-month-old R. rosea plant was harvested and stored at −80° C. before subsequent metabolomic analysis. […] The extracts were then analyzed by LC-HRAM-MS. […]

Substrate in data set [2]: OCCc1ccc(O)cc1
The experiment in a line: Michaelis-Menten kinetics of RrT8GT (RrUGT33), tyrosol 8-O-glucosylation. The format is biochemical, Rhodiola rosea. To be noted: other: substrate tyrosol (0.01-5.0 mM), 10 mM UDP-glucose, pH 8.0, 30° C., 10 min. How it is done:
Kinetic characterization of UGTs was conducted in 200 μL reaction buffer (50 mM Tris, pH 8.0) containing 10 mM UDP-glucose and various concentrations of tyrosol (0.01-5.0 mM). Reactions were started with addition of recombinant enzyme, incubated at 30° C. for 10 minutes, and quenched by addition of 200 μL of methanol. The reaction mixed was then analyzed by LC-HRAR-MS as described above. Compounds were separated by reversed-phase chromatography with a ramp gradient of solvent A (0.1% formic acid in H2O) and solvent B (0.1% formic acid in acetonitrile): 5% solvent B for 0.5 min, 5-55% solvent B over 6 min, 55-5% solvent B over 1.0 min and a final equilibration of 5% solvent B for 1 min with a flow rate at 0.6 mL/min. Product formation was measured using select ion monitoring in positive mode for a centroid center mass of 318.15. Product mass was calculated by comparison to a standard curve of the NMR verified plant purified salidroside and icariside D2 samples.
as §2

The nature of data set [3]: Hydrogen peroxide production from L-tyrosine by recombinant AAS candidates. In kind it is biochemical. To be noted: L-tyrosine as substrate. As for the experimental part:
FIG. 12 is a graph showing relative hydrogen peroxide production for the Rr4HPAAS, the RrAAS and the PsTyDC. 100 μL reaction mixtures containing 50 μg of recombinant enzyme, 2 mM L-tyrosine, 50 mM Tris pH 8.0 and 200 μM PLP were incubated at 30° C. for various time points prior to quenching with 100 μL of 0.8 M formic acid. Hydrogen peroxide levels of quenched reaction mixtures were subsequently analyzed using Pierce Quantitative Peroxide Assay Kit against a standard curve of hydrogen peroxide.
as §1, with “PLP.” for “PLP. Kinetic reactions were incubated with a range of amino acid substrate concentrations (1 μM-4 mM) at 30° C. for 30 minutes prior to quenching with 100 μL of 0.8 M formic acid.”, “To resolve chromatographically L-tyrosine, tyrosol and 4-HPAAA, compounds were separated through the use of an isocratic mobile phase containing 50 mM monopotassium phosphate pH 4.6, 15% (v/v) acetonitrile and 0.5 mM octyl sulfate.” left out

Substrate in data set [4]: N[C@@H](Cc1ccc(O)cc1)C(=O)O
The experiment in a line: purified protein, by the assay type. To be noted: other: amino acid substrate 1 μM-4 mM, 200 μM PLP, pH 8.0, 30° C., 30 min, peroxide assay.

Substrate in data set [5]: N[C@@H](Cc1ccc(O)c(O)c1)C(=O)O
The experiment in a line: purified protein, by the assay type. To be noted: other: amino acid substrate 1 μM-4 mM, 200 μM PLP, pH 8.0, 30° C., 30 min, peroxide assay.

We go through five molecules from US12385055B2, “Compositions and methods for production of salidroside, icariside D2, and precursors of salidroside and icariside D2” (Whitehead Institute for Biomedical Research, priority 2017, dated 2025).

As to `N[C@@H](Cc1ccccc1)C(=O)O` [L-phenylalanine], the “substrate preference (Michaelis-Menten kinetics, in words)” value in data set [1] is on record as “much less preferred substrates”.

On to `N[C@@H](Cc1c[nH]c2ccccc12)C(=O)O` [L-tryptophan], for which the “substrate preference (Michaelis-Menten kinetics, in words)” value in data set [1] is “much less preferred substrates”.

B1: PsTyDC: Papaver somniferum tyrosine decarboxylase, tested as control (protein, UniProt O82415 1-512, looked up)
Tyrosine decarboxylase: MGSLPTNNLESISLCSQNPLDPDEFRRQGHMIIDFLADYYKNVEKYPVRSQVEPGYLKKRLPESAPYNPESIETILEDVTNDIIPGLTHWQSPNYFAYFPSSGSIAGFLGEMLSTGFNVVGFNWMSSPAATELESIVMNWLGQMLTLPKSFLFSSDGSSGGGGVLQGTTCEAILCTLTAARDKMLNKIGRENINKLVVYASDQTHCALQKAAQIAGINPKNVRAIKTSKATNFGLSPNSLQSAILADIESGLVPLFLCATVGTTSSTAVDPIGPLCAVAKLYGIWVHIDAAYAGSACICPEFRHFIDGVEDADSFSLNAHKWFFTTLDCCCLWVKDSDSLVKALSTSPEYLKNKATESKQVIDYKDWQIALSRRFRSMKLWLVLRSYGVANLRTFLRSHVKMAKHFQGLIGMDNRFEIVVPRTFAMVCFRLKPTAIFKQKIVDNDYIEDQTNEVNVKLLESVNASGKIYMTHAVVGGVYMIRFAVGATLTEERHVTGAWKVVQEHTDAILGA
As to B1, in the data set on N. benthamiana leaves, the “metabolites produced on expression of the enzyme alone” value is reported as “no measurable production of tyrosol glycosides”.

B2: Rhodiola rosea RrT8GT (RrUGT33), tyrosol:UDP-glucose 8-O-glucosyltransferase, SEQ ID NO: 20 (Rhodiola rosea) (protein)
chain: MSLIEKPLTAIETREKPHAVCIPYPAQGHINPMMQLAKLLHHSGFHITFVHTEYNYDRLVKSQGSACVAGLPDFRFEAIPDGLPSTNGDVTQDIPLLSSSTSKTCLKPFKELLKRLQDKCKELPDDVPPLSCIVSDAAMSFTIDASEEFGVPIALLWTASACGFLGYTHYPYLIDRGVIPLKDESQLTNGYLDMSIDGIPCMEGIRLRDLPSFLRTTDLDDMMFSYILHEIKQVSRGSAIILNTFEALDHDVLDSLSKIYQNVILPVGPLHVSLNKIPKHYPLQSLSSNLWKDDTDCIPWLSSKASKSVIYVNFGSITTVSPKQIVEFAWGLANSKHPFLWIIRPDLVAGEASIIPQDFMDETKGRGLLAGWCDQELVLNHPSIGGFLTHCGWNSIIESISAGVPTVCWPFFAEQQTNCWFACKKWCIGMEMHTDVKRDEVDKLLRELMEGDKGEELKRKATNWKRLAEEAVSSTGLSTLNFRTLVNQVLLSKTKHIR
Turning to B2, in data set [2], the Michaelis-Menten constant (Km) stood at 1.37 ± 0.05 mM, the kcat was 576.2 ± 5.68 s⁻¹ and the kcat/Km was determined as 421000 M⁻¹ s⁻¹.

B3: Rhodiola rosea Rr4HPAAS, 4-hydroxyphenylacetaldehyde synthase, GenBank MF674522, SEQ ID NO: 2 (Rhodiola rosea) (protein)
chain: MGSLPSPNDPSNTFNPMDLTELSTESKLVVDFITQYYQTLETRPVQPRVKPGFLTGQLPDKAPFHGESMEVILSDVNEKIVPGLTHWQSPNFHAYFPASSSNAGLLGELLCSGLSVIGFTWSSSPAATELENVVVDWMAKMLNLPSSFCFSGGGGGVLQANTCEAVLCTLAAARDKALNRVGDDQINKLVLYCSDQTHFTIHKGAKLIGIRSKNIKSITTKKENEFKLCPNDLRDAIRSDLEAGLVPFYVCGTIGTTALGVVDPIKELGKVAREFDLWLHVDGAYGGSACICPEFQHYLDGVDLVDSISMNAHKWLLSNLDCCFLWLQSPNALIESLAAEANFLKGGSEMVDYKDWQISLSRRFRAIKMWMVIRRYGVSNLIEHIRSDVSMAVRFEEMVAADDRFEIVFPRKFALVCFKLSSEKTPPGRDSELTRELMERVNSSGKAYLSGVQMGRIFFIRCVIGSSLTEERHVDNLWRLIQETAQSIVS
Consider B3, for which the hydrogen peroxide production entry in data set [3] is recorded as “much higher activity”. For the same molecule, in data set [4], the Km is 0.42 ± 0.02 mM, the kcat turned out to be 4.92 ± 0.08 s⁻¹ and the kcat/Km was found to be 11700 M⁻¹ s⁻¹. In addition, the Km in data set [5] is 1.04 ± 0.10 mM. The “metabolites produced on expression of the enzyme alone” value with N. benthamiana leaves is “significant accumulation of both salidroside and icariside D2”.
